The record followed here is the supplement of paper PMC10567573.

± gives the standard deviation.

The data set is described as follows: protein stability index of a GFP-peptide fusion (GPS, HEK-293T) (PSI 1-6); higher = more stable.
Where [1] appears, read: treatment: DMSO, c terminus: a fixed tail appended.
Where [2] appears, read: treatment: MLN4924 1 uM, 8 h, c terminus: a fixed tail appended.
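Note: 24-mer peptide tiles fused after GFP, lentivirally expressed, FACS-sorted into six equal bins by GFP/DsRed ratio, decoded by Illumina sequencing, PSI is the read-weighted mean bin number.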

As to QATLPVGSPSRPLSRRQLCPLTPG [C2CD2L], the protein stability index was found to be 3.61 ± 0.33 under setting [1] and 3.74 ± 0.14 under setting [2].
As for QCQEAEQARAELTAQHQRRLAAIA [FBF1], the protein stability index runs as follows: under setting [1], 4.34 ± 0.05; under setting [2], 4.28 ± 0.15.
As for QDGVLDLSTKKSPCAGSTSLSHSP [LCOR], the protein stability index runs as follows: under setting [1], 4.95 ± 0.14; under setting [2], 4.96 ± 0.2.
Take QDKPYKCTDCGKSFNHNAHLTVHK [ZNF8]: the protein stability index under setting [1] was determined as 3.71 ± 0.27 and the protein stability index under setting [2] was 3.72 ± 0.41.
For the sequence QDQPSEAATGGATLAQTISEAAIG [HDAC6], the protein stability index by setting is: under setting [1], 5.09 ± 0.23; under setting [2], 5.35 ± 0.15.
With QDSKEMKQLLDSKIGFEIGIENEE [ZNF449], the protein stability index was 5.35 ± 0.37 under setting [1] and 5.37 ± 0.47 under setting [2].
In the case of QENESLFTFLGKKCVTMSSAVVQL [WASL], the protein stability index under setting [1] is 2.29 ± 0.34 and the protein stability index under setting [2] was determined as 2.32 ± 0.039.
For the sequence QEPQSPQKLNPGFDLAKGNAGKVN [PLAGL1], the protein stability index by setting is: under setting [1], 5 ± 0.2; under setting [2], 4.89 ± 0.39.
QESKNQVHRRGEYNVYSTFQSHEP [PPP2R2B] returned a protein stability index under setting [1] of 3.72 ± 0.38 and a protein stability index under setting [2] of 4.2 ± 0.22.
Turning to QFQEALEELAKKRFKDKSSEEAVR [TPPP], the protein stability index turned out to be 3.49 ± 0.38 under setting [1] and 3.64 ± 0.39 under setting [2].
Turning to QFTMGGPAISMASPMSIPTNTMHY [CARM1], the protein stability index under setting [1] stood at 2.54 ± 0.21 and the protein stability index under setting [2] is 2.68 ± 0.18.
The matching figures for QGPMSQRRENYGVPPRRATISSWR [RBMY1A1]: 3.68 ± 0.22 and 3.57 ± 0.36.
For QGSLSNTYLSKVDPDGKKIKQIQQ [FBXO33] the same measures were 4.28 ± 0.31 and 4.34 ± 0.18.
Regarding QIFANTVDNARIVLQIDNARLAAD [KRT18], the protein stability index was 2.78 ± 0.28 under setting [1] and 2.75 ± 0.33 under setting [2].
Regarding QKAVKSCLVCQASFCELHLKPHLE [TRIM29], the protein stability index stood at 3.86 ± 0.19 under setting [1] and 3.86 ± 0.25 under setting [2].
The matching figures for QKRSRAIHSSDEGEDQAGDEDEDD [WAS]: 5.69 ± 0.21 and 5.57 ± 0.24.
Consider QLAHMVKEQEETIQRIDENVLGAQ [STX5], for which the protein stability index under setting [1] was found to be 4.81 ± 0.45 and the protein stability index under setting [2] was found to be 4.96 ± 0.21.
The matching figures for QLTNTSGTVIGVTSCIVIILIIIS [NETO1]: 2.43 ± 0.27 and 2.43 ± 0.28.
The matching figures for QLWSNVTPLTFTKVSEGQADIMIS [MMP1]: 2.58 ± 0.24 and 2.66 ± 0.43.
As for QNCLWTLRNLSDAATKQEGMEGLL [CTNNB1], the protein stability index reads like this: under setting [1], 3.23 ± 0.28; under setting [2], 3.04 ± 0.18.
QNLQEEKERKLECLPPEPSPDDPE [FAF2] yielded a protein stability index under setting [1] of 5.44 ± 0.37 and a protein stability index under setting [2] of 5.46 ± 0.46.
Regarding QNRYLDGMVRAHGVRVSVPCPSTT [BET1L], the protein stability index is, setting by setting: under setting [1], 3.02 ± 0.37; under setting [2], 3.21 ± 0.44.
Turning to QNTHLTRHQRTHTGEKPYQCNICG [ZNF263], the protein stability index was determined as 4.01 ± 0.27 under setting [1] and 4.19 ± 0.32 under setting [2].
Turning to QPMCEEHEEERINIYCLNCEVPTC [TRIM55], the protein stability index under setting [1] is 4.43 ± 0.2 and the protein stability index under setting [2] was 4.31 ± 0.22.
The matching figures for QPWMVIEGIRQTEYTLTGLKFDMK [FSD1]: 2.29 ± 0.35 and 2.52 ± 0.49.
Consider QQDDSDEYDDDDSAASTSFQPQPV [ZNF207], for which the protein stability index by setting is: under setting [1], 5.4 ± 0.18; under setting [2], 5.37 ± 0.18.
On to QQERNDTNFHGVCMFCNEEFLGNR [ZNF277], for which the protein stability index is, setting by setting: under setting [1], 2.96 ± 0.34; under setting [2], 2.99 ± 0.6.
With QQYQSQAKQLFRKLNEQSPTRCTL [SEC22B], the protein stability index is, setting by setting: under setting [1], 3.46 ± 0.073; under setting [2], 3.44 ± 0.27.
For QRAKCKDPQLEIAYRGNCKDVSRC [SMOC2], the protein stability index stood at 3.85 ± 0.21 under setting [1] and 4 ± 0.14 under setting [2].
As to QRIKSQERETEATRGRGGLLRDHI [MOG], the protein stability index is, setting by setting: under setting [1], 4.59 ± 0.18; under setting [2], 4.78 ± 0.11.
For QSGCLYRLRALGERHTMDLTVEGF [TMEM120A] the same measures were 2.12 ± 0.55 and 2.27 ± 0.2.
Consider QSHPHLVAEAFRALASAQCPQFGI [SPOPL], for which the protein stability index by setting is: under setting [1], 2.35 ± 0.4; under setting [2], 2.16 ± 0.023.
Regarding QSLEGDTTKGTSEMSEKRGPTSSN [MLH1], the protein stability index amounted to 5.54 ± 0.18 under setting [1] and 5.43 ± 0.28 under setting [2].
In the case of QTGDLLSTFHTISPSFQLKAAALP [PLAGL1], the protein stability index by setting is: under setting [1], 2.6 ± 0.22; under setting [2], 2.67 ± 0.22.
Take QTLKAMVQAWPFTCLPLGVLMKGQ [PRAME]: the protein stability index was 2.65 ± 0.85 under setting [1] and 3.03 ± 0.38 under setting [2].
For the sequence QTQVKIWFQNKRSKFKKLMKQGGA [DLX1], the protein stability index is, setting by setting: under setting [1], 2.36 ± 0.32; under setting [2], 2.1 ± 0.42.
On to QTWKLFSSHMNIDITDDCICDLAR [PPEF2], for which the protein stability index was 2.25 ± 0.35 under setting [1] and 2.06 ± 0.32 under setting [2].
For QVHDDDLLSSSEEECKDRERPMYG [EMD], the protein stability index was found to be 5.49 ± 0.22 under setting [1] and 5.41 ± 0.13 under setting [2].
Regarding QVQSLITNVESQLAEIRSDLERQN [KRT33B], the protein stability index reads like this: under setting [1], 3.85 ± 0.22; under setting [2], 3.91 ± 0.1.
For QVRSAAVQLIWVVSQLYPESIVPI [INTS4] the same measures were 3.29 ± 0.32 and 2.9 ± 0.32.
With QYALELLTVYAWERGSMKTHFNTA [OAS1], the protein stability index under setting [1] was found to be 3 ± 0.24 and the protein stability index under setting [2] turned out to be 2.86 ± 0.43.
On to QYHHSKIRNRGYNLIYRSTRHLKR [TMEM192], for which the protein stability index reads like this: under setting [1], 3.07 ± 0.25; under setting [2], 2.98 ± 0.091.
As to QYLMASDMAGKIKLWDLRTTKCVR [DCAF4], the protein stability index runs as follows: under setting [1], 2.26 ± 0.11; under setting [2], 2.43 ± 0.26.
Consider RAASENSQDALRVVSTSGEQMKVY [IKZF1], for which the protein stability index came to 4.26 ± 0.57 under setting [1] and 4.78 ± 0.29 under setting [2].
For RAPEVLLQSTYATPVDMWSVGCIF [CDK4] the same measures were 2.7 ± 0.28 and 2.35 ± 0.34.
The matching figures for RAPRSPGQVTPRGLRLRLPRRESL [C6orf223]: 4.19 ± 0.35 and 4.41 ± 0.25.
For the sequence RARVKEKFSPEAFTEQLYRYVTKL [ALG2], the protein stability index by setting is: under setting [1], 2.36 ± 0.48; under setting [2], 2.05 ± 0.46.
Take RCLHASQWPVCAACPVRKFWSVG [BRF1]: the protein stability index came to 2.4 ± 0.14 (treatment: DMSO, c terminus: native) and 2.17 ± 0.34 (treatment: MLN4924 1 uM, 8 h, c terminus: native).
For RDSYGGPPRREPLPSRRDVYLSPR [RBMX], the protein stability index runs as follows: under setting [1], 3.69 ± 0.36; under setting [2], 3.97 ± 0.2.
For RDVYLPAGKWRSYKGELFDKTPVL [MYORG] the same measures were 2.32 ± 0.3 and 2.51 ± 0.18.
The matching figures for REEMKLKECVSILPRKESPSVRSS [TNFSF13B]: 4.61 ± 0.14 and 4.73 ± 0.2.
As for RENSSDSPKELKRRNSSSSMSSRL [DLC1], the protein stability index reads like this: under setting [1], 5.13 ± 0.23; under setting [2], 5.05 ± 0.3.
For the sequence RESRGSTRGKRESESRGSSGRVKR [USP39], the protein stability index came to 5.14 ± 0.32 under setting [1] and 5.24 ± 0.33 under setting [2].
On to REVFNEIYPVWTYSYLVLLFPVFL [SLC19A2], for which the protein stability index runs as follows: under setting [1], 2.71 ± 0.61; under setting [2], 2.62 ± 0.21.
Regarding RFNQVLKNLLHAEFLRVQEERILH [VPS39], the protein stability index by setting is: under setting [1], 2.47 ± 0.81; under setting [2], 2.46 ± 0.38.
For the sequence RFPLQEENSVTHHEVKCQGKPLAG [KMT5A], the protein stability index came to 4.69 ± 0.27 under setting [1] and 4.55 ± 0.38 under setting [2].
For RFRFGQDQLLLATGLNNGRIKIWD [WSB1], the protein stability index runs as follows: under setting [1], 2.25 ± 0.33; under setting [2], 2.5 ± 0.32.
Turning to RFYYQALSVAPQIGMPFNQLGTLA [SMG5], the protein stability index runs as follows: under setting [1], 2.63 ± 0.6; under setting [2], 2.55 ± 0.61.
For the sequence RGCSVKIWTAHYDPGHCFAESREL [ALG2], the protein stability index reads like this: under setting [1], 2.21 ± 0.26; under setting [2], 2.11 ± 0.52.
On to RGGGDPWTNGSGLALCQRYYHRGH [MCOLN1], for which the protein stability index reads like this: under setting [1], 3.08 ± 0.23; under setting [2], 3.2 ± 0.28.
RGNTYALQTGPLLGRPDSLELQRQ [RSPH3] came in with a protein stability index under setting [1] of 3.87 ± 0.15 and a protein stability index under setting [2] of 3.9 ± 0.26.
As for RGSIQSRYISMSVWTSPRRLVELA [PRAME], the protein stability index runs as follows: under setting [1], 2.52 ± 0.24; under setting [2], 2.71 ± 0.3.
With RGTPPRRHSFRKHLYLLRGLPGSG [N4BP2L1], the protein stability index was 2.64 ± 0.3 under setting [1] and 2.94 ± 0.21 under setting [2].
Consider RGYIKPHVDSIKFCGATIAGLSLL [ALKBH7], for which the protein stability index under setting [1] was determined as 2.52 ± 0.41 and the protein stability index under setting [2] was found to be 2.39 ± 0.63.
In the case of RHFFTSWASCLQYDFDTQYAFVGD [WDFY1], the protein stability index runs as follows: under setting [1], 2.37 ± 0.28; under setting [2], 2.39 ± 0.17.
For RICLGKFTFPGMSLDKRQGEGLRI [TPRG1] the same measures were 2.12 ± 0.19 and 2.08 ± 0.32.
With RIHTGERPYMCKECGKAFSQNSSL [ZNF8], the protein stability index by setting is: under setting [1], 2.84 ± 0.39; under setting [2], 3.2 ± 0.74.
As to RILQEKLDQPVSAPPSPRDISMEI [CCDC6], the protein stability index came to 3.68 ± 0.33 under setting [1] and 3.87 ± 0.25 under setting [2].
Take RKDVCKSTHHGCEHICVNNGNSYI [MATN2]: the protein stability index under setting [1] stood at 3.01 ± 0.32 and the protein stability index under setting [2] stood at 3.07 ± 0.23.
For the sequence RKYFADLAMNYKHGDPIPKVEFTE [TPH1], the protein stability index reads like this: under setting [1], 3.31 ± 0.32; under setting [2], 3.3 ± 0.24.
RLRDAGFRVTLWVHPFVNYNSSRF [MYORG] came in with a protein stability index under setting [1] of 2.61 ± 0.61 and a protein stability index under setting [2] of 2.44 ± 0.15.
For RLSKEWEDSKRWSKMDQLAKELTA [CHGA] the same measures were 3.18 ± 0.34 and 3.41 ± 0.66.
